Laboratory results from PMC5389710.

Target: Arabidopsis thaliana NAP1-related protein 1 (NRP1) (A. thaliana) (UniProt Q9CA59)
Assay: ITC

Sequence of Arabidopsis thaliana NAP1-related protein 1 (NRP1) (A. thaliana) (Q9CA59 whole entry): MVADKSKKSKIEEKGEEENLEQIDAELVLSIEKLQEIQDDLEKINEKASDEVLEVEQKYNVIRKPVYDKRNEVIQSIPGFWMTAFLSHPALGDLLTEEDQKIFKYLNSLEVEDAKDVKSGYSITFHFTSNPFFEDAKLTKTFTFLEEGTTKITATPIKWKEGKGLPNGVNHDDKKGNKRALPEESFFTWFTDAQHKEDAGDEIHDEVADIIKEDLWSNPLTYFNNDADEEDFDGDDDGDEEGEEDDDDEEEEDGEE

Kd [µM]	dH [kcal/mol]	Substance
5		Arabidopsis thaliana cytochrome c (from UniProt Q9T0G2 1-112) (natural protein)
0.1		Chicken erythrocyte H2A–H2B histone dimer (from UniProt P02263 1-129; P0C1H3 1-126) (complex)
	-10.4	Xenopus laevis core histone H4 (from UniProt P62799 1-103) (natural protein)
